From patent US20150175666A1 (YEDA RESEARCH AND DEVELOPMENT, published 2015) come the findings set out here.

Ends that are not written are not given here. * marks the point of attachment. NBD = O=[N+]([O-])c1ccc(*)c2nonc12

The target in assay [1] is T1, NBD-labeled core peptide of the TCRα TMD (GLRILLLKV; SEQ ID NO: 14).
T1 construct: also called NBD-CP; CP
T1 peptide: {NBD}-GLRILLLKV
The assay is described as follows: NBD fluorescence of NBD-CP on PC:Chol LUVs, sequential doses of unlabeled peptide.

In assay [2] the target is T2, TCR of MOG35-55-specific murine line T cells (mMOG35-55 T cells) (mouse, UniProt A2KF29). Put plainly: cell-based or functional assay.
T2 sequence (A2KF29 whole entry): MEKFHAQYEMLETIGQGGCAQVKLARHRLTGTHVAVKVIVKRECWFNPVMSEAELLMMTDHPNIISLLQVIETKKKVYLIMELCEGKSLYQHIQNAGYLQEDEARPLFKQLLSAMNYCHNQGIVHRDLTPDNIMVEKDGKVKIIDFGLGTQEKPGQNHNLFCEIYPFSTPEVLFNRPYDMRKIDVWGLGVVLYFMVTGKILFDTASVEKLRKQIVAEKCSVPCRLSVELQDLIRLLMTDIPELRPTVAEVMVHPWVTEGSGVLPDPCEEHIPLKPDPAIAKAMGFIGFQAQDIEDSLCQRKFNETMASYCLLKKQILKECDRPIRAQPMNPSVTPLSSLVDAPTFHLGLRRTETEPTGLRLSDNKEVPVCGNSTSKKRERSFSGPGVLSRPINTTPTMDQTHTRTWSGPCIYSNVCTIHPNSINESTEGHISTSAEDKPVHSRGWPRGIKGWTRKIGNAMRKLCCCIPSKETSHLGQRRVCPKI
Assay [3] has as its target T2, TCR of MOG35-55-specific murine line T …. The assay is described as follows: cell-based or functional assay. The source holds these as a separate data set.

B1: control mutant (W/G) peptide (SNKSLEQIGNHTTGMEGD, SEQ ID NO: 9), unlabeled (peptide)
peptide: SNKSLEQIGNHTTGMEGD
notes: Unlabeled form used in the NBD-CP fluorescence experiment
Consider B1, for which, in assay [1], the binding result was “binds”.

SNKSLEQIWNHTTWMEWD [pep 6 (SNKSLEQIWNHTTWMEWD), gp41 derived peptide, unlabeled]: the “inhibitory concentration at 50% proliferation (IC50), MOG35-55-specific T-cell proliferation” value in assay [2] came out at 1 µM. Besides, the “IC50 (µM), inhibition of MOG35-55-specific T-cell proliferation” value in assay [3] came out at 0.55 µM. In addition, in assay [1], the binding result was “binds”.

B2: control mutant peptide (SNKSLEQIWNHTTWMGWG, SEQ ID NO: 10), unlabeled (peptide)
peptide: SNKSLEQIWNHTTWMGWG
notes: pep 6 with the conserved acidic residues (Glu and Asp) mutated to Gly
On to B2, for which, in assay [1], the binding result is “binds”.
